Measurements: paper PMC6592955

Key:
calmodulin (CaM) = calmodulin (CaM) (UniProt P0DP26); assay: 2pFLIM-FRET in single dendritic spines; details: reference: wild type
[1] = molecular target: mEGFP-CaMKIIα^T286A (Rattus norvegicus) (UniProt P11275); assay: FRET or BRET; 2pFLIM-FRET in single dendritic spines of CA1 pyramidal neurons, organotypic hippocampal slices; single glutamate uncaging pulse; room temperature; decay fitted with a single exponential; T286A in slices of Camk2a^T286A knock-in mice
[2] = molecular target: mEGFP-CaMKIIα^T305A/T306A (Rattus norvegicus) (UniProt P11275); assay: as above
[3] = molecular target: mEGFP-CaMKIIα^T286A (Rattus norvegicus) (UniProt P11275); assay: FRET or BRET; 2pFLIM-FRET in single dendritic spines of CA1 pyramidal neurons, organotypic hippocampal slices; glutamate uncaging at near physiological temperature (34–35 °C); Supplementary Fig. 2
[4] = molecular target: mEGFP-CaMKIIα (wildtype) (Rattus norvegicus) (UniProt P11275); assay: FRET or BRET; 2pFLIM-FRET in single dendritic spines of CA1 pyramidal neurons, organotypic hippocampal slices; single glutamate uncaging pulse; room temperature; decay fitted with a single exponential; T286A in slices of Camk2a^T286A knock-in mice
[5] = molecular target: mEGFP-CaMKIIα (wildtype) (Rattus norvegicus) (UniProt P11275); assay: FRET or BRET; 2pFLIM-FRET in single dendritic spines of CA1 pyramidal neurons, organotypic hippocampal slices; glutamate uncaging at near physiological temperature (34–35 °C); Supplementary Fig. 2

Substance: CaMKIIα (from UniProt P11275) T305A/T306A
- other: dissociation time constant (calmodulin (CaM); sites T305,T306): stronger; reference 2.9 ± 0.3
- other: fast dissociation time constant (calmodulin (CaM); sites T305,T306): stronger; reference 3.2 ± 0.6

Substance: mCherry-CaM (from UniProt P0DP26 1-149) (natural protein)
- dissociation time constant (tau) [1]: 1.2 s
- dissociation time constant (tau) [2]: 7.5 s
- dissociation time constant (tau) [3]: 0.3 s

Substance: mCherry-CaM (from UniProt P0DP26 1-149) (natural protein; other documents disagree on this pair)
- dissociation time constant (tau) [4]: 2.9 s
- koff [4]: 0.33 s⁻¹
- dissociation time constant (tau) [5]: 0.4 s

Substance: CaMKIIα (from UniProt P11275) T286A
- other: dissociation time constant (calmodulin (CaM); sites T286): weaker; reference 2.9 ± 0.3
- other: fast dissociation time constant (calmodulin (CaM); sites T286): weaker; reference 3.2 ± 0.6
